From patent US8778635B2, “Thermostable proteins and methods making and using thereof” (Becton, Dickinson and Company, priority 2006, dated 2014)
Residue numbers refer to the chain shown, from its start. Numbers in names are those of the source.

B1: W183C(1, 3, 5, 10): W183C (SEQ ID NO:4) with N39I, G82E, Q83K, N84D, Q175E, Q177H, L178M, N259E and N260S (protein)
chain: ADTRIGVTIYKYDDNFMSVVRKAIEQDAKAAPDVQLLMIDSQNDQSKQNDQIDVLLAKGVKALAINLVDPAAAGTVIEKAREKDVPVVFFNKEPSRKALDSYDKAYYVGTDSKESGIIQGDLIAKHWAANQGWDLNKDGQIQFVLLKGEPGHPDAEARTTYVIKELNDKGIKTEELHMDTAMCDTAQAKDKMDAWLSGPNANKIEVVIANNDAMAMGAVEALKAHNKSSIPVFGVDALPEALALVKSGALAGTVLNDAESQAKATFDLAKNLADGKGAADGTNWKIDNKVVRVPYVGVDKDNLAEFSKK
B2: Modified protein 1: 3M-GGBP (SEQ ID NO:3) with substitution N39I (protein)
chain: ADTRIGVTIYKYDDNFMSVVRKAIEQDAKAAPDVQLLMIDSQNDQSKQNDQIDVLLAKGVKALAINLVDPAAAGTVIEKARGQNVPVVFFNKEPSRKALDSYDKAYYVGTDSKESGIIQGDLIAKHWAANQGWDLNKDGQIQFVLLKGCPGHPDAEARTTYVIKELNDKGIKTEQLQLDTAMWDTAQAKDKMDAWLSGPNANKIEVVIANNDRMAMGAVEALKAHNKSSIPVFGVDASPEALALVKSGALAGTVLNDANNQAKATFDLAKNLADGKGAADGTNWKIDNKVVRVPYVGVDKDNLAEFSKK
B3: Modified protein 13: 3M-GGBP (SEQ ID NO:3) with substitution N302T (protein)
chain: B2 chain with I39N, N302T
B4: Modified protein 12: 3M-GGBP (SEQ ID NO:3) with substitutions N283D, W284L (protein)
chain: B2 chain with I39N, N283D, W284L
B5: Modified protein 6: 3M-GGBP (SEQ ID NO:3) with substitutions Q175I, Q177E (protein)
chain: B2 chain with I39N, Q175I, Q177E
B6: Modified protein 7: 3M-GGBP (SEQ ID NO:3) with substitutions G198S, P199S, N200K (protein)
chain: B2 chain with I39N, G198S, P199S, N200K
B7: Modified protein 9: 3M-GGBP (SEQ ID NO:3) with substitution N226K (protein)
chain: B2 chain with I39N, N226K
B8: Modified protein 8: 3M-GGBP (SEQ ID NO:3) with substitution N226G (protein)
chain: B2 chain with I39N, N226G
B9: Modified protein 5: 3M-GGBP (SEQ ID NO:3) with substitutions Q175E, Q177H, L178M (protein)
chain: B2 chain with I39N, Q175E, Q177H, L178M
B10: Modified protein 11: 3M-GGBP (SEQ ID NO:3) with substitutions K270Y, N271S (protein)
chain: B2 chain with I39N, K270Y, N271S
B11: Modified protein 3: 3M-GGBP (SEQ ID NO:3) with substitutions G82E, Q83K, N84D (protein)
chain: B2 chain with I39N, G82E, Q83K, N84D
B12: Modified protein 4: 3M-GGBP (SEQ ID NO:3) with substitution N130D (protein)
chain: B2 chain with I39N, N130D
B13: Modified protein 10: 3M-GGBP (SEQ ID NO:3) with substitutions N259E, N260S (protein)
chain: B2 chain with I39N, N259E, N260S

Experiments:
[1] = Circular dichroism melting temperature (Tm), CD signal at 222 nm versus temperature; type: physicochemical; parameters: key to + ΔTm / − ΔTm: Tm difference in °C from reference 3M-GGBP; details: for increase of Tm over the reference protein (in words): among the thirteen modified GGBPs, reference 3M-GGBP; for + ΔTm: increase of Tm over reference protein 3M-GGBP; for + ΔTm / − ΔTm: CD, PBS; for Previously Tested, See - Table II: ΔTm: repeated from Table II, modified 3M-GGBP versus 3M-GGBP; for − ΔTm: decrease of Tm versus reference protein 3M-GGBP
Protocol: Circular Dichroism (CD) spectra were preformed on a JASCO J-810. Samples of purified fluorophore-labeled proteins were exhaustively dialyzed into phosphate buffered saline (PBS) (comprised of 137 mM NaCl, 10 mM phosphate and 2.7 mM KCl, pH 7.4). The loss of secondary structure of 3M-GGBP and W183C-GGBP was observed by recording the CD signal at 222 nm as a function of temperature. During the experiment, the temperature of the sample changed at a rate of ˜1° C./min between 20 and 80° C. The apparent melting temperature at the midpoint of the transition (Tm) was obtained by fitting the experimental data points (CD signal versus temperature) with a sigmoidal function.

[2] = Fluorescence assay of glucose binding (glucose titration, Kd and fluorescence response)
Protocol: Dye-protein fluorophore (N,N′-dimethyl-N-(iodoacetyl)-N′-(7-nitrobenz-2-oxa-1,3-diazol-4-yl)ethylenediamine designated IANBD) or acrylodan coupling was performed as described by the manufacturer (Molecular Probes).
Briefly, 0.5 ml of 3M-GGBP (1-2 mg/ml) was treated with 2.5 molar excess of dithiothreitol for 30 min. A10-fold molar excess solution of IANBD in DMSO (0.5 mg/100 uL) was then added. While protected from light, the protein and dye were gently mixed for 4 h at 25° C. before the unreacted dye was removed by Nap-5 column chromatography (Amersham Biosciences).
Binding constants were determined by titration of increasing concentrations of glucose into a 0.1 μM protein in PBS and monitoring the change in fluorescence. The Kd was determined from the following relationships as adapted from Pisarchick and Thompson (Pisarchick, M. L. and Thompson, N. L. Biophys. J. (1990), 58, 1235-1249):
[formula] where F is fluorescence intensity, Finf is fluorescence at infinity, F0 is fluorescence at zero
[formula] where [Glc]free is the concentration of free glucose and [Glc]tot and [Prot]tot are the total concentrations of glucose and protein, respectively. For the SM4, the ratio of the area under the fluorescence curve from 514-540 nm to the area under the curve at 450-470 nm was used in place of fluorescence intensity in the equations above. […]

[3] = Storage stability of purified / labeled protein; type: physicochemical; details: acrylodan-labeled
Protocol: The modified GGBP were expressed from E. coli strain Sg13009 following standard protocols (Qiagen). After induction, bacteria were lysed using Bugbuster protein extraction reagent (Novagen) and purified by IMAC using Talon cobalt^2+ resin (Clontech). The purified protein in solution was filtered through 100 kDa cutoff filter and then concentrated using a 10 kDa cutoff filter (Millipore). The protein (1-2 mg/ml) was dialyzed at 4° C. into a solution containing 1M NaCl, 10 mM Tris-HCl, and 50 mM NaPO4 (pH 8) and stored at 4° C. Under these conditions the protein was active for at least six months. The yield from the purification was approximately 10 mg/l.
After labeling with acrylodan the SM4 was transferred to a buffer for frozen storage. The protein was dialyzed against a solution of 0.01M MES, 30 mM glucose (pH 5.5-5.7) for 24 h with three changes of buffer. After dialysis the protein was quantified and diluted to a 100 μM solution using the same buffer. The vials were then placed directly into a −70° C. freezer for storage. The protein is stable for at least 3 months under these conditions.
To lyophilize the SM4 protein, the protein solution was dialyzed against ammonium bicarbonate (50 mM, pH 7) for 24 h with three changes of buffer. The protein was passed through a 0.2 um Supor filter (Pall) and was aliquoted into amber vials (2 mg/vial). […]

| Molecule | + ΔTm [1] | Previously Tested, See - Table II: ΔTm [1] | − ΔTm [1] | also measured |
| --- | --- | --- | --- | --- |
| W183C-acrylodan: reference W183C-GGBP labeled with acrylodan | – | – | – | Tm* ([1]; Tm determined in PBS, fluorophore-labeled protein): 39.8 ± 2%; Kd ([2]; glucose titrated into 0.1 μM protein in PBS): 19.6 ± 10%; Fluorescent Response ([2]; glucose, labeled protein): 3.4 ± 8% |
| B1 | – | – | – | Tm greater than that of the reference protein (W183C) ([1]; FIG. 1, protocol of Example 2): about 9.4 °C; melting temperature ([1]; without the termini additions present, in PBS): about 55.4 °C; time the protein is stable, frozen storage ([3]; 100 μM in 0.01M MES, 30 mM glucose (pH 5.5-5.7), −70° C.): at least 3 months; time the protein is stable, lyophilized ([3]; lyophilized from ammonium bicarbonate (50 mM, pH 7)): at least 6 months |
| B2 | 1 | +1 | – | increase of Tm over the reference protein (in words) [1]: greatest increase of Tm |
| B3 | – | – | 0.2 | – |
| B4 | – | −3.7 | 3.7 | – |
| B5 | – | – | 0.3 | – |
| B6 | 0.5 | +0.5 | – | – |
| B7 | 0.3 | – | – | – |
| B8 | 0.9 | – | – | – |
| B9 | 3 | – | – | increase of Tm over the reference protein (in words) [1]: greatest increase of Tm |
| B10 | – | −3.5 | 3.5 | – |
| B11 | 1.5 | – | – | increase of Tm over the reference protein (in words) [1]: greatest increase of Tm |
| B12 | – | −5.2 | 5.2 | – |
| B13 | 3.6 | – | – | increase of Tm over the reference protein (in words) [1]: greatest increase of Tm |
